A word on the Kd: it is the equilibrium constant for the complex coming apart.

This assay addresses Purified Arp2/3 complex. As to the kind of experiment: fluorescence anisotropy, labelled ArpinA peptide titrated with purified Arp2/3 complex. On the technique in general: In fluorescence polarisation assays a small probe gives low polarisation when free and higher when bound to something large.

No end group written: not given here. *: point of attachment. 5‑TAMRA = 5-carboxytetramethylrhodamine label, CN(C)c1ccc2c(-c3ccc(C(=O)*)cc3C(=O)[O-])c3ccc(=[N+](C)C)cc-3oc2c1

In turn, {5‑TAMRA}-EIREQGDGAEDEEWDD [ArpinA peptide labelled with 5-TAMRA at the N-terminus] had a Kd of 384 nM.

The record behind these values is patent publication US20160199445A1, “USE OF ARPIN A NEW INHIBITOR OF THE ARP2/3 COMPLEX FOR THE DIAGNOSIS AND TREATMENT OF DISEASES” (CENTRE NATIONAL DE LA RECHERCHE SCIENTIFIQUE, priority 2013, published 2016).
